Article PMC2946933
Values joined by “and” are separate entries in the source; they are usually repeats but may differ in a detail not shown here. Equal values may be shown once.

Experiments:
Conditions in all cases: EMSA: 50 mM Tris-HCl pH 7.5, 100 mM KCl, 10 mM MgCl2, room temperature, SPR: same buffer, 25 C, Tb footprinting: 50 mM Tris-HCl pH 8.0, 100 mM NaCl
Hfq wild type [1] = biological target: T1, Hfq wild type (Escherichia coli?) (UniProt P0A6X3); test: EMSA
Hfq wild type [2] = biological target: T1, Hfq wild type; test: SPR
Hfq wild type [3] = biological target: T1, Hfq wild type; test: Tb(III) footprinting

T1 sequence (P0A6X3 whole entry): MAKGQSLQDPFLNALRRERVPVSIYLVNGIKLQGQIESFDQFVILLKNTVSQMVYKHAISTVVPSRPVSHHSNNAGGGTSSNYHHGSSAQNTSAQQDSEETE

Substance: fhlA220 mRNA
- Kd (Hfq wild type [1]; Hfq hexamer, 10 mM Mg2+): 15 nM

Substance: OxyS sRNA with fhlA220 mRNA
- Kd (Hfq wild type [1]): 23 nM

Substance: fhlA53 mRNA
- Kd (Hfq wild type [1]; 10 mM Mg2+): 70 nM
- Kd (Hfq wild type [2]): 43 nM and 50 nM and 5 nM

Substance: GGCAGUUAGUCAAUGACCUUUUGCACCGCUUUGCGGUGCUUUCCUGGAAGAACAAAAUGUCAUAUACACCGAUGAGUGAUCUCGGACAACAAGGGUUGUUCGACAUCACUCGGACAACAAAUAUUGGAUCCAGCUCG [fhlA53 mRNA]
- Kd (Hfq wild type [1]): 70 nM
- binding (Hfq wild type [3]): binds
- Kd (Hfq wild type [2]): 43 nM and 50 nM

Substance: GCAGCGUUACAUUCCCAUCCACUGGGGAAAGACGCGGCGCUGAUUGGUGAAGUGGUGGAACGUAAAGGUGUUCGUCUUGCCGGUCUGUAUGGCGUGAAACGAACCCUCGAUUUACCACACGCCGAACCGCUUCCGCGUAUAUGCUAAUAAAAUUCUAAAUCUCCUAUAGUUAGUCAAUGACCUUUUGCACCGCUUUGCGGUGCUUUCCUGGAAGAACAAAAUGUCAUAUACACCGAUGAGUGAUCUCGGACAACAAGGGUUGUUCGACAUCACUCGGACAAAUAUUGGAUCCGCUCGG [fhlA220 mRNA]
- Kd (Hfq wild type [1]): 15 nM
